PMC9561381 (Nucleic Acids Research, 2022)

Target: the molecule itself
Experiment: SEC-MALS

B1: DCP2_(C-tail), untagged (domain or fragment, human, UniProt Q8IU60 249-353, looked up)
chain: SDNGFSSTGSTPAKPTVEKLSRTKFRHSQQLFPDGSPGDQWVKHRQPLQQKPYNNHSEMSDLLKGKNQSMRGNGRKQYQDSPNQKKRTNGLQPAKQQNSLMKCEK
B1: binds.
